T1: CLIP-6Myc-FLAG-TEV-Myc-Drosha (human, UniProt Q9NRR4 1-1374, CLIP-surface 547 or CLIP-surface 488 fluorophore on the CLIP tag)
T1 sequence: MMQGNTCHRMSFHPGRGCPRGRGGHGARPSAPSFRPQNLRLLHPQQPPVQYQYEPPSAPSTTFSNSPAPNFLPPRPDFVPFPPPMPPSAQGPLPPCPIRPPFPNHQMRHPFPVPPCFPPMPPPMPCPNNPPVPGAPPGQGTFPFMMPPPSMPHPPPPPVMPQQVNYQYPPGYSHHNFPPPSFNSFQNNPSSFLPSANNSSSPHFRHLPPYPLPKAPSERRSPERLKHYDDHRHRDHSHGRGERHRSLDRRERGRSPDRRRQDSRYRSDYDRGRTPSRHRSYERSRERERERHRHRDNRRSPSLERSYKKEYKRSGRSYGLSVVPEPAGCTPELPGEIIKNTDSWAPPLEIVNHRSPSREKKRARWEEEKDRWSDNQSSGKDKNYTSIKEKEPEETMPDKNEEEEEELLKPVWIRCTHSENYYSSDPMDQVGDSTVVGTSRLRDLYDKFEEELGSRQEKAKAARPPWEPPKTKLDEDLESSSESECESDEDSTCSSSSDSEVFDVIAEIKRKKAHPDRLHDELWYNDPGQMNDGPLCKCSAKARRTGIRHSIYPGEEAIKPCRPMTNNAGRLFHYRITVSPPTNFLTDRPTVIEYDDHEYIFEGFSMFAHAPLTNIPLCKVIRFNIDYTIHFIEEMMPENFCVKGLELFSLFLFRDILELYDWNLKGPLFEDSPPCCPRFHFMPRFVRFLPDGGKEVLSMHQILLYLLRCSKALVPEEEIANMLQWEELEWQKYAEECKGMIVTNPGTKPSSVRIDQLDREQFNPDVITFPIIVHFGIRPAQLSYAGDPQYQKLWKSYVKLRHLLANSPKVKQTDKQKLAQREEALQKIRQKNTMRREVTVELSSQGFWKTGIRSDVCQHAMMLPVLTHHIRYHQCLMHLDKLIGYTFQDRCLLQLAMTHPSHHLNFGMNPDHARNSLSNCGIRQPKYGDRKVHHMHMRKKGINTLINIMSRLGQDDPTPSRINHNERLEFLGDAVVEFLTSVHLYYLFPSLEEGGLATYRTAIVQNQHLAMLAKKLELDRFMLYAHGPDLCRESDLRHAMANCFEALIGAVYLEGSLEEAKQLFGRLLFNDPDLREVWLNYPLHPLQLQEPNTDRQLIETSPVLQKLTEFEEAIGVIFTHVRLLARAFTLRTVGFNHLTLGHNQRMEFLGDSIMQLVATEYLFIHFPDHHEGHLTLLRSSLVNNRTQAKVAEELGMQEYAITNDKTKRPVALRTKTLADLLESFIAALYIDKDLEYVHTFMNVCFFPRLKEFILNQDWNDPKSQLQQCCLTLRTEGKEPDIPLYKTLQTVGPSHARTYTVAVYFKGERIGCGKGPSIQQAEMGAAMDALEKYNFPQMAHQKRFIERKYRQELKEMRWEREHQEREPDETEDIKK


Tests used:
[1] = target: the molecule itself; experiment: single-molecule immunoprecipitation with subunit counting by photobleaching
[2] = target: T1, CLIP-6Myc-FLAG-TEV-Myc-Drosha; experiment: as above
[3] = target: the molecule itself; experiment: SEC + other: glycerol gradient centrifugation

| stoichiometry N [2] | Binder | stoichiometry N [1] | stoichiometry N [3] |
| --- | --- | --- | --- |
| 2 DGCR8 per Drosha | SNAP-DGCR8 (natural protein, SNAP-surface Alexa fluor 546 or SNAP-surface Alexa fluor 647 on the SNAP tag) METDESPSPLPCGPAGEAVMESRARPFQALPREQSPPPPLQTSSGAEVMDVGSGGDGQSELPAEDPFNFYGASLLSKGSFSKGRLLIDPNCSGHSPRTARHAPAVRKFSPDLKLLKDVKISVSFTESCRSKDRKVLYTGAERDVRAECGLLLSPVSGDVHACPFGGSVGDGVGIGGESADKKDEENELDQEKRVEYAVLDELEDFTDNLELDEEGAGGFTAKAIVQRDRVDEEALNFPYEDDFDNDVDALLEEGLCAPKKRRTEEKYGGDSDHPSDGETSVQPMMTKIKTVLKSRGRPPTEPLPDGWIMTFHNSGVPVYLHRESRVVTWSRPYFLGTGSIRKHDPPLSSIPCLHYKKMKDNEEREQSSDLTPSGDVSPVKPLSRSAELEFPLDEPDSMGADPGPPDEKDPLGAEAAPGALGQVKAKVEVCKDESVDLEEFRSYLEKRFDFEQVTVKKFRTWAERRQFNREMKRKQAESERPILPANQKLITLSVQDAPTKKEFVINPNGKSEVCILHEYMQRVLKVRPVYNFFECENPSEPFGASVTIDGVTYGSGTASSKKLAKNKAARATLEILIPDFVKQTSEEKPKDSEELEYFNHISIEDSRVYELTSKAGLLSPYQILHECLKRNHGMGDTSIKFEVVPGKNQKSEYVMACGKHTVRGWCKNKRVGKQLASQKILQLLHPHVKNWGSLLRMYGRESSKMVKQETSDKSVIELQQYAKKNKPNLHILSKLQEEMKRLAEEREETRKKPKMSIVASAQPGGEPLCTVDV | 2 DGCR8 per complex | – |
| – | FLAG-SNAP-DGCR8 (natural protein, SNAP-surface 546 Alexa fluorophore on the SNAP tag in a portion of the sample) METDESPSPLPCGPAGEAVMESRARPFQALPREQSPPPPLQTSSGAEVMDVGSGGDGQSELPAEDPFNFYGASLLSKGSFSKGRLLIDPNCSGHSPRTARHAPAVRKFSPDLKLLKDVKISVSFTESCRSKDRKVLYTGAERDVRAECGLLLSPVSGDVHACPFGGSVGDGVGIGGESADKKDEENELDQEKRVEYAVLDELEDFTDNLELDEEGAGGFTAKAIVQRDRVDEEALNFPYEDDFDNDVDALLEEGLCAPKKRRTEEKYGGDSDHPSDGETSVQPMMTKIKTVLKSRGRPPTEPLPDGWIMTFHNSGVPVYLHRESRVVTWSRPYFLGTGSIRKHDPPLSSIPCLHYKKMKDNEEREQSSDLTPSGDVSPVKPLSRSAELEFPLDEPDSMGADPGPPDEKDPLGAEAAPGALGQVKAKVEVCKDESVDLEEFRSYLEKRFDFEQVTVKKFRTWAERRQFNREMKRKQAESERPILPANQKLITLSVQDAPTKKEFVINPNGKSEVCILHEYMQRVLKVRPVYNFFECENPSEPFGASVTIDGVTYGSGTASSKKLAKNKAARATLEILIPDFVKQTSEEKPKDSEELEYFNHISIEDSRVYELTSKAGLLSPYQILHECLKRNHGMGDTSIKFEVVPGKNQKSEYVMACGKHTVRGWCKNKRVGKQLASQKILQLLHPHVKNWGSLLRMYGRESSKMVKQETSDKSVIELQQYAKKNKPNLHILSKLQEEMKRLAEEREETRKKPKMSIVASAQPGGEPLCTVDV | – | 2 SNAP-DGCR8 per complex |

— article PMC4712668 (RNA, 2016)
